# Assay: soluble on expression in E. coli; label from the status in PepcDB or PDB records
row,Sequence,soluble on expression in E. coli
1,MSLHPEQIHNAINCLCLAATATVAGAMISMGCTTGQRSNSRNSRKSSRSNKSKRSQRSKRRSAQRKKSSSRRKKKLRKEKSRKSQRSKRKKRESERRKKERSKRIARSKKSIKRDRERDSDSSRIKKSGSKRNLEKSNRDDSKRKISKDKNSRRSSQEKSHKYSEPLFIPPVDYDDRDRSLKKKKSVRDNNEEGSRRSSSRDKSKDMKEKSQQSKKDSSRKSKKQQKSEKKKSAEQDNRSDPEDDREAEAPNWRRRRRAKEDQNVKARKTKKVKKNEEVPSKKSSKMSKRSKRSTDENLETAKSSRILKDSEPKSSRSSVTSQKIDSSRGMSKLRADALKRMEPKLLVSPNANSDRFQCNEKGCQKGQCSSEARYAQNVRRSASQKSLRAPKENKLKDGSAKTPKVSSTTTPPVDTMRTPTQEPRSIYIETGKSTYGEASKTSGNNARSVYLADPVSAPKAYSVTPQKSTKTPSERKSEKNLEKKASKKSIKSSRSGIQQREVTKTSSKHSSKHSKAPSSKKSSKKSSKKEQKSRALSNSSSKKSVGSHRNKSNR,not soluble
2,MSLHTAQKTRKGEHKWAAVVGLEIHAQISSNSKLFSGSQVRFSAPPNSLVSFFDASLPGTLPVLNRRCVEAAVMTGLALNCHINKKSLFDRKHYFYADLPAGYQITQQRLPIAVNGSLIYGVCAGKKQSQVIPKTVRIKQIQLEQDSGKSLHDNLRSQTLIDLNRAGVGLLEVVLEPDMSCGEEAATAVRELQLILQALGTSQANMAEGQLRVDANISVHHPGEPLGVRTEVKNLNSIRFLAKAIDYEIQRQINELENGGEILNETRSFHHKLGCTMSMRDKEGKQDYRFMPEPNLPPLVLYDATSLPAGADPQQVINIDQIRETLPELPSVTREKLVQQYGMLLEHSFTLLNEVGLLEFFQNVIKETRAEPKKVTSWVLNTFLGYLKQQNLAVSESPVTPSALAELLDLLDSRTISSSAAKQVFEELWKREGKTPGQIVSEKQLELMQDQGALEQLCHSVMEAHPQVVMDVKNRNPRAINKLIGLVRKATQSRADPVMIKEILEKKLSLEGHHHHHH,soluble
3,MSLHYYLGIDCGGTFIKAAIFDQNGTLQSIARRNIPIISEKPGYAERDMDELWNLCAQVIQKTIRQSSILPQQIKAIGISAQGKGAFFLDKDNKPLGRAILSSDQRAYEIVQCWQKENILQKFYPITLQTLWMGHPVSILRWIKENEPSRYEQIHTILMSHDYLRFCLTEKLYCEETNISESNFYNMREGKYDIQLAKLFGITECIDKLPPIIKSNKIAGYVTSRAAEQSGLVEGIPVVGGLFDVVSTALCADLKDDQHLNVVLGTWSVVSGVTHYIDDNQTIPFVYGKYPEKNKFIIHEASPTSAGNLEWFVNQFNLPNYDDINHEIAKLKPASSSVLFAPFLYGSNAKLGMQAGFYGIQSHHTQIHLLQAIYEGVIFSLMSHLERMQVRFPNASTLRVTGGPAKSEVWMQMLADISGMRLEIPNIEETGCLGAALMAMQAESAVEISQILNIDRKIFLPDKNQYSKYQHKYHRYLKFIEALEGHHHHHH,soluble
4,MSLIDARLATEIVVRTVEVMPFDVNVMDAHGVILASSDAARVGEIHAGAQLALARARAVEIDDAMAANLSGARPGINLPLSVRGKVCGVIGVTGEPDAVRGFGELLRVTAELILEREQLTVELRRNARHREEFVLQLLRRTAAAAELEAWADRLGIDMRLAHAAIVCRLSGVDTEPEAGVGQIEAMQSQLAQEWPQLLSAKTSYRELVMFDAVDARAGRDGVLATHAGKRLAALEDTLRKVATQPFSLALGIALDGIDGFERSYQCALATLRVGAARTPQRAAYSYYDFVLPVLLSALSQGWQARQLRLPLTRLLARERRSGALLDTLKAWYAHDGHPSATAQALGIHRNTLDYRLQQIRDATGLDLGAIDDRLWLYIALQTMAGEGHHHHHH,soluble
5,MSLIEIESRELADIPVLHAYPVGQKDTPLPCVIFYHGFTSSSLVYSYFAVALAQAGLRVIMPDAPDHGSRFSGDAARRLNQFWQILLQSMQEFTTLRAAIAEENWLLDDRLAVGGASMGAMTALGITARHPTVRCTASMMGSGYFTSLARSLFPPLIPETAAQQNEFNNIVAPLAEWEATNHLEQLSDRPLLLWHGLDDDVVPADESLRLQQALSETGRDKLLTCSWQPGVRHRITPEALDAAVTFFRQHLEGGSHHHHHH,soluble
6,MSLIFLDYDGTLVPIIMNPEESYADAGLLSLISDLKERFDTYIVTGRSPEEISRFLPLDINMICYHGACSKINGQIVYNNGSDRFLGVFDRIYEDTRSWVSDFPGLRIYRKNLAVLYHLGLMGADMKPKLRSRIEEIARIFGVETYYGKMIIELRVPGVNKGSAIRSVRGERPAIIAGDDATDEAAFEANDDALTIKVGEGETHAKFHVADYIEMRKILKFIEMLGVQKKQEGHHHHHH,soluble
7,MSLIHIAIAEDDFRVAQIHERLIKQLDGFKIIGKAANAKETLALLKEHKADLLLLDIYMPDELGTALIPDIRSRFPEVDIMIITAATETRHLQEALRAGIAHYLIKPVTADKFRQVLLQYKEKRKLLMSQPEVSQSMIDHIFGNGVKTALPAEDLPTGINSITLRKIKEALQTASEGLTAEELGEKMGASRTTARRYAEYLVSKEEARAELEYGIIGRPERKYYLAADEGHHHHHH,soluble
8,MSLIIKNAKVVTHDMQLKEPWAIAGHVHDSIKNTFITLEDSEGNIGIGSCATQNDSEESVKECFDILESFSSSLVGKELGLNENTFGWIASELPLNTEANAAVDIAIHDLWAKREEKTLVDALGKKHQSFDTSITIGVASLEKTIEMAKKHIGNGFSILKIKIGDCVEEDIERMKALFELKPEKIKIRVDANRGYSKEELIKFYEKTLHLGLELIEQPMEVDQNNEMLYFPEEIRKICVADESLQNFDDAVRLLKEPKPFGVFNIKLMKCGGVFAAKKIASLAEENGIELMWGCFDESKISISAALHTALSCENTRYIDLDGFFDLGWDLIEGGYRCENGIMSAIERPGLGVFSEGHHHHHH,soluble
9,MSLIIRKLFEFENAHIVRFCSSKRCKSSIHGHSYKVEVLLESKYLDNAGMVYDFGLLKTYIRQIIDSFDHAITLFKYDDAKYLEEMKKYSSRWICLPVNVSAENFCRVFFILIDALLKQTKMVNGEQGVTLQSIIVHETRTGYAQGFREDAEGHHHHHH,not soluble
10,MSLIKLLALDMDGTLLNEAKEIPQAHITAIHKAIEKGVKLVLCTGRPLFGVLPYYKKLELDLQNEYIIVNNGCSTHQTSDWGLVDWQELSPADIEYLYDLAEKSDVQLTLFDESHYFVLGGKPNQVIENDAKLVFSDLTEISLEEATSGKFRMFQGMFLGTKEQTDDFEQRFAEELCQRFSGVRSQPVIYEAMPLGTTKATALSRLAEILKIDSSEIMAMGDANNDIEMLQFAGLGIAMGNASDYVKSLADAVTSSNEEDGVARAIEKYILEGHHHHHH,soluble
11,MSLIKLRPHHIMCFQGYEGKGYSQDFIDNMDNIYRDLKEKDNLKIKIVFSTDDVCGSCPNKISDNNCGCNEKVMAIDNKVIRVLKLKQKIYTYNELVNKLRLNINEGVMKDICGQCVWYENSKCKTSILSLEGHHHHHH,soluble
12,MSLILESLVTTLDEQGRINLAPLGPIVLPPQSPGGLPQFLLRPYEGSTTCDNLLASGNAVIHVIDDALLIAKTAIGKVDASDLVVPIPGLEDTHVRLKRCHRWFAVRVTQRAGTPPRHELTARCLASGLVDPFFGFNRAKHAVIEAAVAATRLHLLPPEEIEEELERARIAIEKTGGEPEREALQLIRRHVRESSISEGHHHHHH,soluble
13,MSLINARLIAFEDQWVPALNAPLKQAILADSQDAQLAAAMTYSVLAGGKRLRPLLTVATMQSLGVTFVPERHWRPVMALELLHTYSLIHDDLPAMDNDALRRGEPTNHVKFGAGMATLAGDGLLTLAFQWLTATDLPATMQAALVQALATAAGPSGMVAGQAKDIQSEHVNLPLSQLRVLHKEKTGALLHYAVQAGLILGQAPEAQWPAYLQFADAFGLAFQIYDDILDVVSSPAEMGKATQKDADEAKNTYPGKLGLIGANQALIDTIHSGQAALQGLPTSTQRDDLAAFFSYFDTERVNEGHHHHHH,soluble
14,MSLINKEILPFTAQAFDPKKDQFKEVTQEDLKGSWSVVCFYPADFSFVCPTELEDLQNQYEELQKLGVNVFSVSTDTHFVHKAWHDHSDAISKITYTMIGDPSQTITRNFDVLDEATGLAQRGTFIIDPDGVVQASEINADGIGRDASTLAHKIKAAQYVRKNPGEVCPAKWEEGAKTLQPGLDLVGKI,not soluble
15,MSLIPSSGPSAKKVVSLGQQSEAQIPEVELIDVNHAVAQSLYKAQVNQSFTQFGDGYASTGTLNIGDVLDIMIWEAPPAVLFGGGLSSMGSGSAQQTKLPEQLVTARGTVSVPFVGDISVVGKTPGQVQEIIKGRLKKMANQPQVMVRLVQNNAANVSVIRAGNSVRMPLTAAGERVLDAVAAVGGSTANVQDTNVQLTRGNVVRTVALEDLVANPRQNILLRRGDVVTMITNPYTFTSMGAVGRTQEIGFSARGLSLSEAIGRMGGLQDRRSDARGVFVFRYTPLVELPAERQDKWIRQGYGSEAEIPTVYRVNMADAHSLFSMQRFPVKNKDVLYVSNAPLAEVQKFLSFVFSPVTSGANSINNLTNEGHHHHHH,soluble
16,MSLIRFRFVDDHRTDYSVKRMCTVLGLNRSSYYKWKASSAQRHRRLVDDAILGAKVQAIFDDKKQLYGAKRIAAELTFNDAYSSTGPVNHKRIARIMRKLQLRGYTKKRKVTTTQRERHRFIFADLVKRNFTAPAANRILVGDITYLPIADGSNMYLASVIDCYSRMLVGFAIADHMRTDLVEEALEHARRTRGSLSGAIFHSDHGSVYTSSQFQAVCRRLNVTQSMGAVGSSADNSLAESFNAALKREVLKDQKVFSNQLVCRRDVFAWCARYNTTRRHSWCKYLTPIEYESHASEGHHHHHH,not soluble
17,MSLIRKREFDMPIKIPDTLPAFETLVHEGVRVMTETAAIRQDIRPLQIGLLNLMPNKIKTEIQMARLVGASPLQVELSLIRIGGHRAKNTPEEHLLSFYQTWEEVRHRKFDGFIITGAPIELLDYEDVTYWNEMQQIFEWTQTNVHSTLNVCWGAMAAIYHFHGVPKYELKEKAFGVYRHRNLSPSSIYLNGFSDDFQVPVSRWTEVRRADIEKHPELEILMESDEMGVCLAHEKAGNRLYMFNHVEYDSTSLADEYFRDVNSGVPIKLPHDYFPHNDPELAPLNRWRSHAHLFFGNWINEIYQTTPYDPQAIGKLAAEGHHHHHH,soluble
18,MSLIYHRIAVNVPLSDGLLTYSHSDPLPPGTRVLVPFRNKTVVGMVWETDIAPDMDMARILSVQTAFVEEKPLPESWRDLLAFTSRYYHYPTGQAVFAALPQGLKETRAVEMPQPPLFYALNEAGRAQTPPPARFNKKAALWDALLSGGMTMAALKQVNAQAAKLIEDWAEQGWIETTEAAKPVLRSYHGQASHSEFVLNADQQQASDEIQTAFGSFQPFLLYGITGSGKTEVYFDAMAKVLAQGRQVLFLLPEINLTPQLLKRVENRFADVPTAVLHSQMAAGKRTQDYLRAMLGQAKLVIGTRLAVFTPMDDVGLIVVDEEHDGSFKQDNELRYHARDLAVWRAKQGGCPIILGSATPSLESWHKAQSGAYRLLQLTERAHTAAQLPQVDILNVGRLKLDNGFSPQALQLLKQNFEAGGMSLVYLNRRGFAPALFCGDCGYTFGCPNCSAKMVLHQRARQLRCHHCDHREPIPYKCPDCGNQDLTAVGHGTQRVEETLRTFLPKAAVVRVDRDSTAHKNDWADLYRRIADNKIDILVGTQMLAKGHDFARLNLVIVLNADGSLYSADFRAPERLFAELMQVSGRAGRADKPGKVLIQTQLPEHPVFAAVKAQDYAVFAENELNERQMFAMPPFGFQTAVRADAPRVADAMEFLNAAKETLAPLLPESVSQFGAAPMLMVRLAERERAQIFLESPSRQDLHRAVSLWAQVLQQNRDGKIRWSVDVDPQEAEGHHHHHH,not soluble
